According to PMC6392013 (Methods in molecular biology (Clifton, N.J.), 2012):

Molecular target: ubiquitin (UniProt P0CG48 1-76)
Test: NMR intermolecular NOESY

B1: S5a (196–306) (domain or fragment, UniProt P55036 196-306, looked up)
chain: MLGLGASDFEFGVDPSADPELALALRVSMEEQRQRQEEEARRAAAASAAEAGIATTGTEDSDDALLKMTISQQEFGRTGLPDLSSMTEEEQIAYAMQMSLQGAEFGQAESA
B1: binds.
